In patent publication US20250206837A1:
pEC50: −log10 of the molar value.

Target: Recombinant His-tagged mouse CD36.ECD protein (Sino Biological) (mouse) (UniProt Q08857)
Test: ELISA, coated mouse CD36.ECD (FIG. 1D)

Recombinant His-tagged mouse CD36.ECD protein (Sino Biological) (mouse), sequence (Q08857 30-439 limits assumed): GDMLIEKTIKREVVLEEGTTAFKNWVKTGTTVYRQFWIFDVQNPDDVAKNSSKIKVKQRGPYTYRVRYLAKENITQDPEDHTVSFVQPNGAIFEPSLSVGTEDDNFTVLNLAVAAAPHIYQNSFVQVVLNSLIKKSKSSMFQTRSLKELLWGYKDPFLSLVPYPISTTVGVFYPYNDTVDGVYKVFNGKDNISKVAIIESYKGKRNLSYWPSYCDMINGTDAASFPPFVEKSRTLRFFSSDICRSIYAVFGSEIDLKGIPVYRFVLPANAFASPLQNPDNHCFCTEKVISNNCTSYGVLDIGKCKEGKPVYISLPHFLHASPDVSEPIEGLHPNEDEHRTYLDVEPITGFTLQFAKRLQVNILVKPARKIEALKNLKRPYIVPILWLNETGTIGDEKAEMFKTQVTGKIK

- pEC50: 9.03
Substance: D2712 (clone CRF D-2712, BD Biosciences, US) (antibody)
